For the assay, the target named is MHCI antigen presented on MNs. Nature of the assay: cell-based or functional assay.

Substance “killer cell immunoglobulin-like receptor 3DL2 (KIR3DL2) (from UniProt P43630 22-455)” came in with an MN death on co-culture with kir3dl2 shRNA treated ALS astrocytes, day 7 of 50%.

Values taken from patent US20190038774A1.
